Results on 16 molecules are retold here after patent US20240342320A1 (GUANGZHOU GENBIONOVA MEDICAL TECHNOLOGY, published 2024).

Positions of bridges follow the written chain, without caps; N, C: chain ends. Non-standard residues stand in square brackets, D forms with d. Primed or numbered codes have the meaning given here. No end group written: not given here. PEG4′ = not defined here; NOTA′ = NOTA chelator

First the molecules themselves.
B1: RWYD (peptide)
peptide: RWYD
notes: also called P15; linear quaternary polypeptide RWYD
B2: (RWYD-PEG4)2-K-K-NOTA (peptide)
peptide: RWYD
modifications: not fully specified; each RWYD carries PEG4 at its C-terminus; two RWYD-PEG4 units are joined through lysine, followed by K-NOTA: (RWYD-PEG4)2-K-K-NOTA
notes: also called RD2; RD2 dimer
B3: RWYD-PEG4-K-NOTA (peptide)
peptide: RWYD[PEG4′]K-{NOTA′}
notes: The unlabelled form was used in MST; also called RD

Chain of Integrin α6β1 (chain, as listed by the source, chain 1 of 2): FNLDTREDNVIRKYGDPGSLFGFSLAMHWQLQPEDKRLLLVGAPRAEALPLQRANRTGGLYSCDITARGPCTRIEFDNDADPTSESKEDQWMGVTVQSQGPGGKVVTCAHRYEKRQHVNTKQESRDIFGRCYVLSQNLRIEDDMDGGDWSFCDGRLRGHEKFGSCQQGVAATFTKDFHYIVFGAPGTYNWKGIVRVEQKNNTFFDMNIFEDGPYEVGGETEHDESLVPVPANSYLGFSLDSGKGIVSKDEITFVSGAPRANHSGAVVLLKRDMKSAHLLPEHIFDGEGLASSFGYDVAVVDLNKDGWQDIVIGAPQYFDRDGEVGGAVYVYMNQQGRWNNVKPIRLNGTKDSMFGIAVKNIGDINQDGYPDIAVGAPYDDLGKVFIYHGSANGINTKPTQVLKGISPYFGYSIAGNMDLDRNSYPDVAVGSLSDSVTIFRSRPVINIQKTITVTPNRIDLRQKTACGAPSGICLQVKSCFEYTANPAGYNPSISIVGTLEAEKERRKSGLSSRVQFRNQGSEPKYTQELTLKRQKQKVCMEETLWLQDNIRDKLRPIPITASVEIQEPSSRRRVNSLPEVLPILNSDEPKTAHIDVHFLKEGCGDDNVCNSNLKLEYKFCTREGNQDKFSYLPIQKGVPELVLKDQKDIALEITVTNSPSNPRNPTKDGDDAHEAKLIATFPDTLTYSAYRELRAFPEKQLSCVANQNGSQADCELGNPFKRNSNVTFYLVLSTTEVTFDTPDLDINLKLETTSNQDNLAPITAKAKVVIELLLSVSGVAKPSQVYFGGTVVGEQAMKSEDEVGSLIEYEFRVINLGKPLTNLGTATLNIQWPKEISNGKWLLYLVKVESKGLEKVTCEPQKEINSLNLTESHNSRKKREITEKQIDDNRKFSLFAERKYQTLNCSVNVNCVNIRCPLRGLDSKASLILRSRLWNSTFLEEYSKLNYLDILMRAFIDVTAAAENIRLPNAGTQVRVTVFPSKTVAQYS
Chain of Integrin α6β1 (chain, as listed by the source, chain 2 of 2): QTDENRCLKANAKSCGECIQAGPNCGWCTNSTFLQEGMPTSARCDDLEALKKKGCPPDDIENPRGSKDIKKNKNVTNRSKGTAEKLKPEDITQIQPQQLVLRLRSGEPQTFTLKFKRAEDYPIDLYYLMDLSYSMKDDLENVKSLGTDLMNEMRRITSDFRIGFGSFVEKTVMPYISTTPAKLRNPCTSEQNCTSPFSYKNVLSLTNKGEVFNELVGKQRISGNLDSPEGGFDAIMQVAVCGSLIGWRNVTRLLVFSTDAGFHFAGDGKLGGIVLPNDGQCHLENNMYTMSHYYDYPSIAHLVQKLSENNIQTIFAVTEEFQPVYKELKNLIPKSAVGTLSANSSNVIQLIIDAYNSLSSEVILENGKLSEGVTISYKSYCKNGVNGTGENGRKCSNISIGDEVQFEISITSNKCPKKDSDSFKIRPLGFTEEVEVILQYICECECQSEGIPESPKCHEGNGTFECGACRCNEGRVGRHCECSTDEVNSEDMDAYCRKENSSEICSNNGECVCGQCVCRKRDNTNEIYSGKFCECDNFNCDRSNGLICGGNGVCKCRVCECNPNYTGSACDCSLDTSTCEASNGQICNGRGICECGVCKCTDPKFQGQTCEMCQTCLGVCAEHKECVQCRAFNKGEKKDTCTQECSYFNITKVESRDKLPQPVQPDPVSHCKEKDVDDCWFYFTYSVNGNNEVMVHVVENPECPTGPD

The target of the first experiment is Integrin α6β4 protein. Description: MST, dye-labelled integrin α6β4, run 3. The procedure:
(§1) The affinity between these 18 polypeptides and integrin α6β4 was detected by microscale thermophoresis (MST) method as follows: [0053] 1) Integrin α6β4 protein was dissolved to 800 nM, and polypeptide was dissolved to 100 μM. [0054] 2) A RED-tris-NTA second-generation dye was diluted to 100 nM by using the MO series RED-tris-NTA protein labeling kit. [0055] 3) 100 μl α6β4 protein was mixed with 50 μl dye and incubated at room temperature for 30 min, so that the α6β4 protein binds to the dye. [0056] 4) 10 μl polypeptide was transferred into a PCR tube, and was diluted with PBST (containing 0.05% Tween 20) at a ratio of 1:1 to 16 gradients of concentrations. [0057] 5) 3 μl protein/dye mixture was transferred into a PCR tube, 3 μl of 16 different concentrations of polypeptides was respectively added and mixed well. [0058] 6) The mixture was absorbed by capillary and loaded on machine (instrument model Monolith NT.115) to assay, parameters were set as 80% LED/excitation power and medium MST power. [0059] 7) MO. Affinity Analysis software was used to calculate the equilibrium dissociation constant KD between α6β4 protein and polypeptide by KD fitting mode.
For orientation: Kd means a measure of binding affinity in units of concentration. Higher therefore signals weaker binding. CAWYDENAC (disulfide 1-9 (inferred), also called P2) came in with a Kd of 3.58 µM.

For RWYDANA (Straight-chain peptide; also called P10), binding was characterised by a dissociation constant (Kd) of 12.4 µM.

On to CRAYDENAC (disulfide 1-9 (inferred), also called P3), for which the affinity, expressed as Kd, was 13.8 µM.

CRWYDANAC (disulfide 1-9 (inferred), also called P6): the Kd was determined as 3.83 µM.

RWYDEA (Straight-chain peptide; also called P12) came in with a dissociation constant Kd of 1.74 µM.

For the molecule RWYDAN (Straight-chain peptide; also called P11), the equilibrium dissociation constant (Kd) amounted to 35.7 µM.

Regarding CRWYDENAC (disulfide 1-9 (inferred), also called P1), binding was characterised by a dissociation constant (Kd) of 5.81 µM.

On to RWYDA (Straight-chain peptide; also called P14), for which the affinity, expressed as Kd, was 4.22 µM.

Molecule RWYDE (Straight-chain peptide; also called P13) had an equilibrium dissociation constant (Kd) of 99.6 µM.

With CRWYDEAAC (disulfide 1-9 (inferred), also called P7), the Kd was 1.37 µM.

For RWYAEN (Straight-chain peptide; also called P16), the dissociation constant Kd is 9.74 µM.

On to CRWYAENAC (disulfide 1-9 (inferred), also called P5), for which the affinity, expressed as Kd, was 0.65 µM.

Take B1: the Kd was 0.026 µM.

The molecule RWYDEN (Straight-chain peptide; also called P9) registered a dissociation constant Kd of 13.1 µM.

The target in the next experiment is Integrin α6β4 protein. Kind of experiment: MST, dye-labelled integrin α6β4, run 2. The procedure:
as §1
On to CAWYDENAC (disulfide 1-9 (inferred), also called P2), for which the equilibrium dissociation constant (Kd) stood at 12.1 µM.

As for RWYDANA (Straight-chain peptide; also called P10), the Kd is 17.5 µM.

In the case of CRAYDENAC (disulfide 1-9 (inferred), also called P3), the Kd is 11.8 µM.

In turn, CRWYDANAC (disulfide 1-9 (inferred), also called P6) displayed a Kd of 7.99 µM.

Turning to RWYDEA (Straight-chain peptide; also called P12), the Kd amounted to 2.49 µM.

In turn, RWYDAN (Straight-chain peptide; also called P11) registered a dissociation constant (Kd) of 23.2 µM.

CRWYDENAC (disulfide 1-9 (inferred), also called P1) registered a dissociation constant (Kd) of 6.52 µM.

RWYDA (Straight-chain peptide; also called P14) had a Kd of 4.69 µM.

For the molecule RWYDE (Straight-chain peptide; also called P13), binding was put at a Kd of 78.8 µM.

Molecule CRWYDEAAC (disulfide 1-9 (inferred), also called P7) had a dissociation constant Kd of 0.25 µM.

In turn, RWYAEN (Straight-chain peptide; also called P16) came in with a Kd of 6.08 µM.

On to CRWYAENAC (disulfide 1-9 (inferred), also called P5), for which binding was characterised by a dissociation constant (Kd) of 0.22 µM.

Take B1: the Kd was determined as 0.018 µM.

Turning to RWYDEN (Straight-chain peptide; also called P9), binding was characterised by a dissociation constant (Kd) of 8.73 µM.

Another experiment deals with Integrin α6β4 protein. Description: MST, ratio of mean KD against …. The procedure: as §1
Take CAWYDENAC (disulfide 1-9 (inferred), also called P2): the “Affinity relative to RWY” value came to 1.06 fold.

For the molecule RWYDANA (Straight-chain peptide; also called P10), the “Affinity relative to RWY” value came out at 0.23 fold.

In the case of CRAYDENAC (disulfide 1-9 (inferred), also called P3), the “Affinity relative to RWY” value came out at 0.52 fold.

Regarding CRWYDANAC (disulfide 1-9 (inferred), also called P6), the “Affinity relative to RWY” value was determined as 1.61 fold.

As to RWYDEA (Straight-chain peptide; also called P12), the “Affinity relative to RWY” value was 2.2 fold.

Consider RWYDAN (Straight-chain peptide; also called P11), for which the “Affinity relative to RWY” value is 0.22 fold.

With CRWYDENAC (disulfide 1-9 (inferred), also called P1), the “Affinity relative to RWY” value amounted to 1 fold.

With RWYDA (Straight-chain peptide; also called P14), the “Affinity relative to RWY” value came out at 1.38 fold.

Take RWYDE (Straight-chain peptide; also called P13): the “Affinity relative to RWY” value amounted to 0.11 fold.

For the molecule CRWYDEAAC (disulfide 1-9 (inferred), also called P7), the “Affinity relative to RWY” value was 11.2 fold.

On to RWYAEN (Straight-chain peptide; also called P16), for which the “Affinity relative to RWY” value was determined as 0.9 fold.

As for CRWYAENAC (disulfide 1-9 (inferred), also called P5), the “Affinity relative to RWY” value was determined as 17 fold.

Turning to B1, the “Affinity relative to RWY” value was 327 fold.

With RWYDEN (Straight-chain peptide; also called P9), the “Affinity relative to RWY” value turned out to be 0.66 fold.

Another experiment addresses Integrin α6β1. Kind of experiment: MST (FIG. 2B), integrin α6β1.
B1: the affinity, expressed as Kd, was 0.0531 µM.

In another experiment the target is Integrin α6β4 protein. Description: MST, dye-labelled integrin α6β4, run 1. The method, then:
as §1
For CAWYDENAC (disulfide 1-9 (inferred), also called P2), the equilibrium dissociation constant (Kd) was 4.03 µM.

In the case of RWYDANA (Straight-chain peptide; also called P10), binding was put at a Kd of 62.1 µM.

For CRAYDENAC (disulfide 1-9 (inferred), also called P3), binding was characterised by a dissociation constant (Kd) of 14.4 µM.

In the case of CRWYDANAC (disulfide 1-9 (inferred), also called P6), the Kd was found to be 1.21 µM.

For the molecule RWYDEA (Straight-chain peptide; also called P12), the equilibrium dissociation constant (Kd) was 5.26 µM.

Take RWYDAN (Straight-chain peptide; also called P11): the dissociation constant (Kd) was found to be 34.6 µM.

CRWYDENAC (disulfide 1-9 (inferred), also called P1) registered a Kd of 8.59 µM.

In turn, RWYDA (Straight-chain peptide; also called P14) came in with a Kd of 6.28 µM.

RWYDE (Straight-chain peptide; also called P13) returned a Kd of 14.7 µM.

In the case of CRWYDEAAC (disulfide 1-9 (inferred), also called P7), the Kd worked out at 0.25 µM.

The molecule RWYAEN (Straight-chain peptide; also called P16) gave a Kd of 7.31 µM.

CRWYAENAC (disulfide 1-9 (inferred), also called P5) yielded a Kd of 0.36 µM.

B1 showed a Kd of 0.02 µM.

The molecule RWYDEN (Straight-chain peptide; also called P9) yielded a Kd of 9.69 µM.

For a further experiment, the target named is Integrin α6β4 protein. Kind of experiment: MST, integrin α6β4.
Turning to B2, the Kd amounted to 0.0648 µM and the “fold increase of affinity against RWYD-PEG4-K-NOTA” value is approximately 10 fold.

For B3, the affinity, expressed as Kd, was 0.642 µM.

The next experiment concerns the target Integrin α6β4 protein. Kind of experiment: MST, dye-labelled integrin α6β4, mean of 3 runs. The procedure: as §1
As for CAWYDENAC (disulfide 1-9 (inferred), also called P2), the Kd was determined as 6.58 µM.

Molecule RWYDANA (Straight-chain peptide; also called P10) displayed a Kd of 30.7 µM.

On to CRAYDENAC (disulfide 1-9 (inferred), also called P3), for which the Kd worked out at 13.3 µM.

In turn, CRWYDANAC (disulfide 1-9 (inferred), also called P6) had a Kd of 4.34 µM.

In the case of RWYDEA (Straight-chain peptide; also called P12), the Kd came to 3.16 µM.

In the case of RWYDAN (Straight-chain peptide; also called P11), the equilibrium dissociation constant (Kd) was 31.2 µM.

For CRWYDENAC (disulfide 1-9 (inferred), also called P1), the affinity, expressed as Kd, was 6.97 µM.

Molecule RWYDA (Straight-chain peptide; also called P14) yielded an equilibrium dissociation constant (Kd) of 5.06 µM.

In turn, RWYDE (Straight-chain peptide; also called P13) had a Kd of 64.4 µM.

As for CRWYDEAAC (disulfide 1-9 (inferred), also called P7), the Kd is 0.62 µM.

In turn, RWYAEN (Straight-chain peptide; also called P16) displayed a Kd of 7.71 µM.

On to CRWYAENAC (disulfide 1-9 (inferred), also called P5), for which the affinity, expressed as Kd, was 0.41 µM.

In the case of B1, the Kd is 0.02 µM.

Turning to RWYDEN (Straight-chain peptide; also called P9), the dissociation constant (Kd) was 10.5 µM.

The target of a further experiment is Integrin α6β4 protein. Description: MST, dye-labelled integrin α6β4; unrounded mean of the table's 0.02 µM. The procedure:
as §1
B1 yielded an equilibrium dissociation constant (Kd) of 0.0218 µM.
